Results: patent publication US20110059095A1 (Regeneron, published 2011)
Where no end group is shown, it is not given here. The star is where a group is joined. Biotin = O=C1N[C@H]2[C@H](CS[C@H]2CCCCC(=O)*)N1

T1: Peptide D (N-terminal domain of human PAR-2-mouse IgG2a) (Human)
T1 chain: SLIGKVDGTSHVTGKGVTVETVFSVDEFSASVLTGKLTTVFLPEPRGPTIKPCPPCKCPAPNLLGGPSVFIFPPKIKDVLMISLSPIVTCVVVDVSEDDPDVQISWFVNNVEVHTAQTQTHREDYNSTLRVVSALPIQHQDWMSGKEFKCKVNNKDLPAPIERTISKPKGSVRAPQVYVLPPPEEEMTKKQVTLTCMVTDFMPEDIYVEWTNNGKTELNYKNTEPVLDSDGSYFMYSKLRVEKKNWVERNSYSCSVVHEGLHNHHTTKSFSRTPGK

T2: Peptide A (human PAR-2), unbiotinylated (Human)
T2 construct: also called Peptide A No Biotin
T2 peptide: GTNRSSKGRSLIGKVDGT

T3: Peptide A (human PAR-2), N-terminal biotinylated (Human, N-terminal biotin via G4S linker)
T3 construct: also called Peptide A N-Term
T3 peptide: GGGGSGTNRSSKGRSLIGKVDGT

T4: Peptide E (mouse PAR-2), unbiotinylated (Mouse (Mus musculus))
T4 construct: also called Peptide E No Biotin
T4 peptide: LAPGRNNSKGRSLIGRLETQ

T5: Peptide E (mouse PAR-2), N-terminal biotinylated (Mouse (Mus musculus), N-terminal biotin via G4S linker)
T5 construct: also called Peptide E N-Term
T5 peptide: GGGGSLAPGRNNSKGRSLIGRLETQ

T6: Peptide G (rat PAR-2), unbiotinylated (Rat (Rattus norvegicus))
T6 construct: also called Peptide G No Biotin
T6 peptide: GPNSKGRSLIGRLDTP

T7: Peptide G (rat PAR-2), N-terminal biotinylated (Rat (Rattus norvegicus), N-terminal biotin via G4S linker)
T7 construct: also called Peptide G N-Term
T7 peptide: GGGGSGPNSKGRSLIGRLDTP

T8: Peptide G (rat PAR-2), C-terminal biotinylated (Rat (Rattus norvegicus), C-terminal biotin via G4S linker)
T8 construct: also called Peptide G C-Term
T8 peptide: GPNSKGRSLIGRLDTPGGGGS

T9: Peptide C (human PAR-2), N-terminal biotinylated (Human)
T9 construct: also called Peptide C N-Term
T9 peptide: Biotin-GGGGSSLIGKV

T10: Peptide C (human PAR-2), C-terminal biotinylated (Human)
T10 construct: also called Peptide C C-Term
T10 peptide: SLIGKVGGGGS-biotin

T11: Peptide B (human PAR-2), unbiotinylated (Human)
T11 construct: also called Peptide B No Biotin
T11 peptide: SLIGKVDGTSHVTG

B1: H4H591N (antibody, human IgG4, V domains shown)
VH: EVQLLESGGGLVQPGGSLRLSCATSGFTFSRYTMTWVRQAPGKGLFWVSGIGGSGGRAYYADSVKGRFTLSRDNSKNTLYLQMNSLRAEDTAVYYCAKEGDSGYDLDYWGRGTLVTVSS
VL: DIQMTQYPSSLSASVGDRVTITCRARQGISNYLAWLQQKPGKAPKSLIYAASSLQRGVPSKFSGSGSGTDFTLTISSLQPEDSATYYCQQYKISPLTFGGGTKVEIK
notes: also called H2M591N variable regions
B2: H4H580P (antibody, human IgG4, V domains shown)
VH: QVQLVESGGGVVQPGRSLRLSCVASGFTFSRYGMHWVRQAPGKGLEWVVVISYDGINKYYADSVKGRFTISRDNSKNTVYLQMNSLRAEDTAVYHCAKGDFWSGYFDYWGQGTLVTVSS
VL: DIVMTQTPLSSPVTLGQPASISCRSSQSLVHSDGNTYLSWLHQRPGQPPRLLIYKISNRFSGVPDRFSGSGAGTDFTLQISRVEAEDVGIYYCMQATQFPTFGGGTKVEIK
notes: also called H1H580P variable regions
B3: H4H578P (antibody, human IgG4, V domains shown)
VH: QVQLVESGGGVVQPGMSLRLSCAASGFTFRRYGMHWVRQAPGKGLEWVAVIWYDGSNKYYVDSVKGRFTISRDNSKNTLYLQMNSLRAEDTAVYYCASEITVGDWFDPWGQGTLVTVSS
VL: AIQMTQSPSSLSASVGDRVTITCRASQGIRNDLGWYQQKPGKAPKLLIYAASSLHSGVPSRFSGSGSGTDFTLTISSLQPEDFATYYCLQDFNYPLTFGGGTKVEIK
notes: also called H1H578P variable regions
B4: H4H618N (antibody, human IgG4, V domains shown)
VH: EVQLLESGGGLVQPGGSLRLSCAASGFTFRSYTMTWVRQAPGKGLDWVSGITDSGAGTYYGDSVKGRFTISRDNSKNTLYLQMNSLRAEDTAVYYCVKEGDSGYDLDYWGQGTLVTVSS
VL: DIQMTQSPSSLSASVGDRVTITCRASQGISTYLAWLQQKPGKAPKSLIYATSSLQSGVPSKFSGSRSGTDFTLTISSLQPEDFATYYCQQYKSSPLTFGGGTKVEIK
notes: also called H2M618N variable regions
B5: H4H573P (antibody, human IgG4, V domains shown)
VH: EVQLVESGGGLVQPGRSLRLSCAASGFTFDDYAMHWVRQGPGKGLEWVSGISWNGGSAGYADSVKGRFTISRDNAKNSLYLQLNSLRAEDTALYYCAKEDYAFDIWGQGTMVTVSS
VL: not shown
notes: also called H1H573P variable regions
B6: H2M610N (antibody, V domains shown)
VH: EVQLVESGGNLVQPGRSLRLSCAASGFTFDDYAMHWVRQAPGKGLEWVSGISWNSGSRGYADSVKGRFTISRDNAKNSLYLQMNSLRTEDTAFYYCTKEDEAFDYWGQGTLVTVSS
VL: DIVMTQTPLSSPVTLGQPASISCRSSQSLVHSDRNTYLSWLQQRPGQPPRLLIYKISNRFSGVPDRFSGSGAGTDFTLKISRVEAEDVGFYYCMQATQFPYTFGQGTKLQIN
notes: chimeric: human variable, mouse constant domains

Assays:
[1] = target: T1, Peptide D (N-terminal domain of human …); assay: peptide ELISA
[2] = target: T12, Peptide F (monkey PAR-2), N-terminal biotinylated (Monkey (Macaca mulatta), N-terminal biotin via G4S linker); assay: SPR, antibody captured
T12 construct: also called Peptide F N-Term
T12 sequence (peptide, as listed by the source): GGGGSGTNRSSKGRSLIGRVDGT
Method: (§1) Equilibrium dissociation constants (KD values) for antigen binding to selected purified PAR-2 antibodies were determined by surface kinetics using a real-time surface plasmon resonance biosensor assay. Antibody was captured on either a rabbit anti-mouse IgG polyclonal antibody (GE Healthcare, Piscataway, N.J.) surface or a goat anti-human IgG polyclonal antibody (Jackson Immuno Research Lab, West Grove, Pa.) surface created through direct amine chemical coupling to a BIACORE™ CM5 sensor chip to form a captured antibody surface. […] Antigen-antibody binding and dissociation were monitored in real time at room temperature. Kinetic analysis was performed to calculate KD and half-life of antigen/antibody complex dissociation (Table 10). For those antibodies where no T_{1/2} value is shown, steady state analysis was used to calculate the KD value. NB: no binding observed under current experimental conditions. ND: not determined.

full length human PAR-2 [3] = target: T13, full length human PAR-2 (human, UniProt P55085 26-397); assay: cell-based or functional assay
T13 sequence (P55085 26-397 G138A limits assumed): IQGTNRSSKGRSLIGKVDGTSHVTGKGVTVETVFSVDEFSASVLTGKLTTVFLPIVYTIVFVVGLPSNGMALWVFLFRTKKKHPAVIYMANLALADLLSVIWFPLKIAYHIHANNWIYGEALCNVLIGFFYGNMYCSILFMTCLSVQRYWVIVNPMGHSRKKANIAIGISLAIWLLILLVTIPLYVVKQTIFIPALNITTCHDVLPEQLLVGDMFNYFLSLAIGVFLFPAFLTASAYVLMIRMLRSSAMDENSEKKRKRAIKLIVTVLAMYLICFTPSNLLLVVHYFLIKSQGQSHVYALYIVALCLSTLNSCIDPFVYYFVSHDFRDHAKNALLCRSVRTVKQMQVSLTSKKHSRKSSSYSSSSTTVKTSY

full length human PAR-2 [4] = target: T13, full length human PAR-2; assay: cell-based or functional assay; remark: listed apart in the source
[5] = target: T2, Peptide A (human PAR-2), unbiotinylated; assay: peptide ELISA titration
Method: (§2) Anti-PAR-2 antibodies were tested for their ability to bind to the PAR-2 peptides. Various PAR-2 Peptides (Table 3) were coated onto 96-well plates at a concentration of 2 μg/ml and incubated overnight followed by blocking in a suitable blocking agent for one hour. […] Purified anti-PAR-2 antibodies were added to the plate coated with PAR-2 peptides to a final concentration ranging from 0.2 to 2.0 μg/ml and incubated for one hour at room temperature. Detection of bound antibodies was determined with Horse-Radish Peroxidase (HRP) conjugated anti-mouse or human IgG (Jackson Immuno Research Lab, West Grove, Pa.) and developed by standard colorimetric response using tetramethylbenzidine (TMB) substrate. Absorbance was read at OD₄₅₀ for 0.1 second.
(§3) In another experiment, selected anti-PAR-2 antibodies cloned onto human IgG4 were tested for binding to unbiotinylated and biotinylated forms of PAR-2 peptides (Peptides A, E, F and G; as described above). […] Absorbance values at 450 nm were analyzed using a sigmoidal dose-response model in GraphPad Prism (GraphPad Software, Inc., La Jolla, Calif.) and EC₅₀ values were reported (Table 9). EC₅₀ values are defined as the antibody concentration required to achieve 50% maximal binding to PAR-2 peptide.

[6] = target: T3, Peptide A (human PAR-2), N-terminal …; assay: peptide ELISA titration
Method: as §2, §3

[7] = target: T14, Peptide A (human PAR-2), C-terminal biotinylated (Human, C-terminal biotin via G4S linker); assay: peptide ELISA titration
T14 construct: also called Peptide A C-Term
Method: as §2, §3

[8] = target: T12, Peptide F (monkey PAR-2), N-terminal …; assay: peptide ELISA titration
Method: as §2, §3

full length human PAR-2 [9] = target: T13, full length human PAR-2; assay: MSD cell binding
Method: HEK293 cells were transfected with an NF-κB-luciferase-IRES-eGFP reporter plasmid. […] A clonal cell line, named D9, having low background levels of luciferase activity and high levels of eGFP when induced with IL-1β was made by a series of successive sorts of cell populations using flow cytometry. The 293/D9 cell line was then separately transfected with human PAR-2 or mouse PAR-2 to create the stable cell lines 293/D9/h PAR-2rec and 293/D9/m PAR-2rec, respectively.
Cells were plated on MSD high-bind 96 well plates at a density of 4×10⁴ cells/well in PBS and incubated for one hour at room temperature. Cells were then blocked in PBS with 2% BSA and incubated at room temperature for one hour. Anti-PAR-2 antibodies (ranging from 100 nM to 0.098 nM) were serially diluted two-fold in PBS with 0.5% BSA and incubated with the cells for one hour at room temperature followed by washing in PBS with 0.5% BSA. Sulfo-tagged anti-human IgG antibody (MSD) at a concentration of 0.1 μg/ml was then added to the cell/antibody mixture and incubated at room temperature for an additional hour. After another wash, a 1× non-surfactant containing read buffer was added and electro-chemiluminescent signal was read on the MSD Sector Imager. Signal of antibody binding to 293/D9 cells was subtracted from signal to 293/D9/hPAR-2rec or 293/D9/mPAR-2rec cells. Subtracted data were analyzed using a sigmoidal dose-response model in GraphPad Prism and EC₅₀ and Bₘₐₓ values were reported (Table 18). EC₅₀ values are defined as the antibody concentration required to achieve 50% maximal binding (Bₘₐₓ) to cells.

[10] = target: T2, Peptide A (human PAR-2), unbiotinylated; assay: SPR, antibody captured
Method: as §1

[11] = target: T4, Peptide E (mouse PAR-2), unbiotinylated; assay: peptide ELISA titration
Method: as §2, §3

[12] = target: T5, Peptide E (mouse PAR-2), N-terminal …; assay: peptide ELISA titration
Method: as §2, §3

[13] = target: T6, Peptide G (rat PAR-2), unbiotinylated; assay: peptide ELISA titration
Method: as §2, §3

[14] = target: T7, Peptide G (rat PAR-2), N-terminal …; assay: peptide ELISA titration
Method: as §2, §3

[15] = target: T8, Peptide G (rat PAR-2), C-terminal …; assay: peptide ELISA titration
Method: as §2, §3

[16] = target: T2, Peptide A (human PAR-2), unbiotinylated; assay: SPR, antibody captured, steady state
Method: as §1

[17] = target: T2, Peptide A (human PAR-2), unbiotinylated; assay: peptide ELISA
Method: as §2

[18] = target: T3, Peptide A (human PAR-2), N-terminal …; assay: peptide ELISA
Method: as §2

[19] = target: T14, Peptide A (human PAR-2), C-terminal …; assay: peptide ELISA
Method: as §2

[20] = target: T9, Peptide C (human PAR-2), N-terminal …; assay: peptide ELISA
Method: as §2

[21] = target: T10, Peptide C (human PAR-2), C-terminal …; assay: peptide ELISA
Method: as §2

[22] = target: T11, Peptide B (human PAR-2), unbiotinylated; assay: SPR, antibody captured; SPR at room temperature, monomeric peptide 15.6-250 nM injected over captured antibody
Method: as §1

Binder | binding result [1] | Kd [2] [nM] | T1/2 [2] [min] | IC50, NF-kB-luciferase, 20 nM Trypsin (full length human PAR-2 [3]) [nM] | IC50, NF-kB-luciferase, 10 nM Human Trypsin 1 (full length human PAR-2 [4]) [nM] | IC50, NF-kB-luciferase, 200 nM Factor Xa (full length human PAR-2 [4]) [nM] | IC50, NF-kB-luciferase, 750 nM Lung Tryptase (full length human PAR-2 [4]) [nM] | EC50 [5] [nM] | EC50 [6] [nM] | EC50 [7] [nM] | EC50 [8] [nM] | Kd [10] [nM] | T1/2 [10] [min] | EC50 [11] [nM] | EC50 [12] [nM] | EC50 [13] [nM] | EC50 [14] [nM] | EC50 [15] [nM] | Kd [16] [nM] | also measured
B1 | binds | 8.54 | 21 | 204 | 105 | 74.6 | 62.9 | 0.01 | 0.022 | 0.016 | 0.011 | – | – | – | – | – | – | – | – | –
B2 | – | – | – | 3.5 | – | – | – | 0.09 | 0.16 | 0.202 | 0.148 | 103 | 0.88 | 2.53 | 0.932 | 0.139 | 0.142 | 0.1 | – | Bmax (full length human PAR-2 [9]): 30200 MSD Unit; EC50 (full length human PAR-2 [9]): 8.69 nM
B3 | – | – | – | – | – | – | – | 0.034 | 0.062 | 0.04 | 0.036 | 245 | 0.17 | 2.78 | 0.09 | 0.046 | 0.081 | – | – | –
B4 | binds | 13.8 | 5 | 50.2 | 92.2 | 47.2 | 8.5 | 0.009 | 0.021 | 0.016 | 0.011 | – | – | – | – | – | – | – | – | –
B5 | – | – | – | – | – | – | – | 0.093 | 0.093 | 0.022 | 0.018 | – | – | 0.355 | 0.016 | 0.014 | 0.017 | 10.1 | 749 | –
B6 | – | – | – | – | – | – | – | – | – | – | – | – | – | – | – | – | – | – | 71.3 | OD450 [17]: 1 to 4 od; OD450 [18]: 1 to 4 od; OD450 [19]: 1 to 4 od; OD450 [20]: 0 to 0.09 od; OD450 [21]: 0 to 0.09 od; Kd [22]: 360 nM; T1/2 [22]: 0.8 min
